Source: US20190038660

Tested on: ZF6-DBD (Artificial Sequence)
Experiment: cell_activity
Conditions: in vivo porcine retina, AAV8 DBR-R vector 1x10^12 gc, hRHO-s-ΔZF6 promoter, qPCR 2 months after delivery; binding inferred from repression, not measured …

ZF6-DBD (Artificial Sequence), sequence (chain, as listed by the source): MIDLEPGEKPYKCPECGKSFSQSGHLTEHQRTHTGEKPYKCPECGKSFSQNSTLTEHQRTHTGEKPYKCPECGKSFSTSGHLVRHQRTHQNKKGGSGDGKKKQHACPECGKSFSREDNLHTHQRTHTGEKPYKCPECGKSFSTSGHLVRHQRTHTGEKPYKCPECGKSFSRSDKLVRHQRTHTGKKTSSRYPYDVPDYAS

Q: “porcine Rhodopsin proximal promoter (ZF6 target region)” was tested. Which activity (% repression of Rho transcript) did it give?
A: Its activity (% repression of Rho transcript) is 35.
